From PMC7761212 (2020)

Target: AHb1 (Arabidopsis thaliana, UniProt O24520)
Assay: size exclusion chromatography

| Binder | Kd [µM] |
| --- | --- |
| AHb1 (protein, ferrous-oxy heme (O2-bound)) MESEGKIVFTEEQEALVVKSWSVMKKNSAELGLKLFIKIFEIAPTTKKMFSFLRDSPIPAEQNPKLKPHAMSVFVMCCESAVQLRKTGKVTVRETTLKRLGASHSKYGVVDEHFEVAKYALLETIKEAVPEMWSPEMKVAWGQAYDHLVAAIKAEMNLSN | 1.2 |
| AHb1 (protein, ferric heme) MESEGKIVFTEEQEALVVKSWSVMKKNSAELGLKLFIKIFEIAPTTKKMFSFLRDSPIPAEQNPKLKPHAMSVFVMCCESAVQLRKTGKVTVRETTLKRLGASHSKYGVVDEHFEVAKYALLETIKEAVPEMWSPEMKVAWGQAYDHLVAAIKAEMNLSN | 11 |
